Assay results from US20230313190.

Target: T1, Flag-Atxn1-82Q-HA, P54253
T1 chain: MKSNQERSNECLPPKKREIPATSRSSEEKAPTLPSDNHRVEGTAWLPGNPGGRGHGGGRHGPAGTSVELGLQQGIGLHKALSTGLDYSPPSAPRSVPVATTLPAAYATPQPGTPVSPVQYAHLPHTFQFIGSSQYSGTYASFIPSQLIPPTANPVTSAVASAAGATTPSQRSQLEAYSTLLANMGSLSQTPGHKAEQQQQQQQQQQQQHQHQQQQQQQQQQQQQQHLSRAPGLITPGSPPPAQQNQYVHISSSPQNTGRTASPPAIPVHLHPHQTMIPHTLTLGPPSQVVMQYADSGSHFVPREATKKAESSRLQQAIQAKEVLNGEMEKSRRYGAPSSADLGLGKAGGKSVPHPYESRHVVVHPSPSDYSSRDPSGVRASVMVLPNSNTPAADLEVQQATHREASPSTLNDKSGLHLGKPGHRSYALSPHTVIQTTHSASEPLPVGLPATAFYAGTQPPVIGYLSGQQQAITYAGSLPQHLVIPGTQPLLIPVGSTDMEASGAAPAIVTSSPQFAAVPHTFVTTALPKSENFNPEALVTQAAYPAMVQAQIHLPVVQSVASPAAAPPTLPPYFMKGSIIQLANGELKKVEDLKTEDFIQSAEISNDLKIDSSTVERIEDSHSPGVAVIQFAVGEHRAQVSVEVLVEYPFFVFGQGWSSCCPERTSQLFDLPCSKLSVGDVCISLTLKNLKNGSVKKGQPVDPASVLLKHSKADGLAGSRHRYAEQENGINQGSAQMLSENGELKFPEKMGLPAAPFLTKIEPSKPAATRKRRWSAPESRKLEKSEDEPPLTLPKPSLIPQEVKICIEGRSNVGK

B1: GST-rRNF4 (protein)
chain: MSTRNPQRKRRGGAVNSRQTQKRTRETTSTPEISLEAEPIELVETVGDEIVDLTCESLEPVVVDLTHNDSVVIVEERRRPRRNGRRLRQDHADSCVVSSDDEELSKDKDVYVTTHTPRSTKDEGTTGLRPSGTVSCPICMDGYSEIVQNGRLIVSTECGHVFCSQCLRDSLKNANTCPTCRKKINHKRYHPIYI
- in vitro ubiquitination assay: the unmodified Atxn1 82Q protein was not ubiquitinated
